{"source": "paper doi:10.1101/2025.07.10.664194", "experiment_in_all_cases": "mass photometry", "key": {"[1]": {"target": "PaAbpA (not stated (prefix Pa))"}, "EcPD-T4-1 (E. coli)": {"target": "EcPD-T4-1 (E. coli)"}, "[2]": {"target": "BtHamA (not stated (prefix Bt))"}, "[3]": {"target": "EcHna (E. coli (from the prefix Ec))"}, "EcPD-T4-8 (E. coli)": {"target": "EcPD-T4-8 (E. coli)"}, "[4]": {"target": "PfOloA (not stated (prefix Pf))"}}, "data": [{"substance": "PaAbpB (natural protein)", "values": [{"measurement": "stoichiometry N (AbpA:AbpB (1:1))", "setting": "[1]", "value": 1}]}, {"substance": "EcPD-T4-1 (natural protein)", "values": [{"measurement": "stoichiometry N", "setting": "EcPD-T4-1 (E. coli)", "value": 2}]}, {"substance": "BtHamB (natural protein)", "values": [{"measurement": "stoichiometry N (HamA:HamB (1:1))", "setting": "[2]", "value": 1}]}, {"substance": "EcHna (natural protein)", "values": [{"measurement": "stoichiometry N", "setting": "[3]", "value": 2}]}, {"substance": "EcPD-T4-8 (natural protein)", "values": [{"measurement": "stoichiometry N", "setting": "EcPD-T4-8 (E. coli)", "value": 4}]}, {"substance": "PfOloB (natural protein)", "values": [{"measurement": "stoichiometry N (OloA:OloB (2:2))", "setting": "[4]", "value": 1}]}]}
